# Measurements reported in publication PMC8262862.
# pKd: −log10 of the molar value.
# Columns and labels:
# Assay in all cases: ELISA
# [1] = target: B-Phuket HA
# [2] = target: H5 HA
# [3] = target: H1 HA
# [4] = target: H8 HA
# [5] = target: H9 HA
# [6] = target: H6 HA
# [7] = target: H14 HA
# [8] = target: H13 HA
# [9] = target: H3 HA
# [10] = target: H10 HA
# [11] = target: H2 HA
# [12] = target: H7 HA
Substance,pKd [1],pKd [2],pKd [3],pKd [4],pKd [5],pKd [6],pKd [7],pKd [8],pKd [9],pKd [10],pKd [11],pKd [12]
CR8033,9.96,,,,,,,,,,,
FI6v3,< 7.00,9.60,9.54,9.62,9.32,9.33,9.42,8.82,9.64,8.05,9.52,9.47
